Measured values published in paper PMC9482650, “Quantitative fragmentomics allow affinity mapping of interactomes” (Nature Communications, 2022).

B1: KCNA5, P22460 (peptide)
chain: CLDTSRETDL
B2: MAP2K2, P36507 (peptide)
chain: QPGTPTRTAV
B3: RPS6KA1, Q15418 (peptide)
chain: RRVRKLPSTTL
B4: PTEN, P60484 (peptide)
chain: DEDQHTQITKV
B5: CBP, Q92793 (peptide)
chain: TGDTLEKFVEGL
B6: ACOT6, Q3I5F7 (peptide)
chain: GKKSVKHSKI
B7: LNX1, Q8TBB1 (peptide)
chain: TIVSWPGTFL
B8: SHROOM3, Q8TF72 (peptide)
chain: GIFPTLTSPL
B9: CTNNB1, P35222 (peptide)
chain: NQLAWFDTDL

Biological target: T1, PDZD2_3, O15018
T1 sequence (O15018 581-682, limits assumed, looked up): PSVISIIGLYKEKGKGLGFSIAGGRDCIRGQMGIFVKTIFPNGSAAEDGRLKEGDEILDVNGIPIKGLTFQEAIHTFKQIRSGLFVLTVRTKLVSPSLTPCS
Assay: holdup assay
Parameters: key: below the threshold = too weak to quantify, mostly under pKd 3.1 to 4
Conditions: plain residues with an end cap or a label only (N-terminal biotin on a linker: ttds)

Binder | pKd
B1 | below the threshold
B2 | below the threshold
B3 | below the threshold
B4 | below the threshold
B5 | below the threshold

Biological target: MAGI1_5, Q96QZ7
Sequence (Q96QZ7 986-1098): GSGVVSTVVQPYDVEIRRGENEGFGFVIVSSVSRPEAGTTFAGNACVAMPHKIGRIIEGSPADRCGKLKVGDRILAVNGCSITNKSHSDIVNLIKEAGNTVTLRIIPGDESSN
Assay: holdup assay
Parameters: key: below the threshold = too weak to quantify, mostly under pKd 3.1 to 4
Conditions: plain residues with an end cap or a label only (N-terminal biotin on a linker: ttds)

Binder | pKd
B1 | below the threshold
B2 | below the threshold
B3 | below the threshold
B4 | 4.53
B5 | 4.17

Biological target: LMO7, Q8WWI1
Sequence (Q8WWI1 1037-1138): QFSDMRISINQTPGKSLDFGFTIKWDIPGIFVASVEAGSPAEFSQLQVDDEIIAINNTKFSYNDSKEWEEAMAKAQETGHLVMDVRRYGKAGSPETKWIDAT
Assay: holdup assay
Parameters: key: below the threshold = too weak to quantify, mostly under pKd 3.1 to 4
Conditions: plain residues with an end cap or a label only (N-terminal biotin on a linker: ttds)

Binder | pKd
B1 | below the threshold
B2 | below the threshold
B3 | below the threshold
B4 | below the threshold

Biological target: T2, MPP5, Q8N3R9
T2 sequence (Q8N3R9 251-346, limits assumed, looked up): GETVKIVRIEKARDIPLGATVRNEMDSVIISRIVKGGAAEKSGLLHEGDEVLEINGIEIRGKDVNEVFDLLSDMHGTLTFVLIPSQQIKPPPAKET
Assay: holdup assay
Parameters: key: below the threshold = too weak to quantify, mostly under pKd 3.1 to 4
Conditions: plain residues with an end cap or a label only (N-terminal biotin on a linker: ttds)

Binder | pKd
B1 | below the threshold
B2 | below the threshold
B3 | below the threshold
B4 | below the threshold
B5 | below the threshold

Biological target: T3, PREX2_2, Q70Z35
T3 sequence (Q70Z35 672-764, limits assumed, looked up): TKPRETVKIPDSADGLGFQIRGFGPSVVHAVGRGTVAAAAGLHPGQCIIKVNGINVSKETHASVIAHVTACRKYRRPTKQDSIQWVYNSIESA
Assay: holdup assay
Parameters: key: below the threshold = too weak to quantify, mostly under pKd 3.1 to 4
Conditions: plain residues with an end cap or a label only (N-terminal biotin on a linker: ttds)

Binder | pKd
B1 | below the threshold
B2 | below the threshold
B4 | below the threshold
B5 | below the threshold

Biological target: T4, PDLIM3, Q53GG5
T4 sequence (Q53GG5 1-94, limits assumed, looked up): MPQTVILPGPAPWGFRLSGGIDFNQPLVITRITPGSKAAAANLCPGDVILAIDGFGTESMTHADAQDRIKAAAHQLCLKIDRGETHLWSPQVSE
Assay: holdup assay
Parameters: key: below the threshold = too weak to quantify, mostly under pKd 3.1 to 4
Conditions: plain residues with an end cap or a label only (N-terminal biotin on a linker: ttds)

Binder | pKd
B1 | below the threshold
B2 | below the threshold
B3 | below the threshold
B4 | below the threshold
B5 | below the threshold

Biological target: T5, MLLT4, P55196
T5 sequence (P55196 1002-1103, limits assumed, looked up): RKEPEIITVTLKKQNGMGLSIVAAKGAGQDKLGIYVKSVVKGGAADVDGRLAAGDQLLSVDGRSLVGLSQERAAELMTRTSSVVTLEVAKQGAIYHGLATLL
Assay: holdup assay
Parameters: key: below the threshold = too weak to quantify, mostly under pKd 3.1 to 4
Conditions: plain residues with an end cap or a label only (N-terminal biotin on a linker: ttds)

Binder | pKd
B1 | below the threshold
B2 | below the threshold
B3 | below the threshold
B4 | below the threshold
B5 | below the threshold

Biological target: T6, USH1C_3, Q9Y6N9
T6 sequence (Q9Y6N9 447-547, limits assumed, looked up): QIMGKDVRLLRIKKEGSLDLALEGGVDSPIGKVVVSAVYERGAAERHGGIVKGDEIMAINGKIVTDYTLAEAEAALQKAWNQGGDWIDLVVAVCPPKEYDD
Assay: holdup assay
Parameters: key: below the threshold = too weak to quantify, mostly under pKd 3.1 to 4
Conditions: plain residues with an end cap or a label only (N-terminal biotin on a linker: ttds)

Binder | pKd
B1 | below the threshold
B2 | below the threshold
B3 | below the threshold

Biological target: T7, TIAM2, Q8IVF5
T7 sequence (Q8IVF5 885-986, limits assumed, looked up): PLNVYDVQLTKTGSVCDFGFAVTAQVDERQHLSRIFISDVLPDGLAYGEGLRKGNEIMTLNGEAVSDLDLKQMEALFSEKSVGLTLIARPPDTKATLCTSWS
Assay: holdup assay
Parameters: key: below the threshold = too weak to quantify, mostly under pKd 3.1 to 4
Conditions: plain residues with an end cap or a label only (N-terminal biotin on a linker: ado-ado)

Binder | pKd
B6 | below the threshold

Same assay, conditions: plain residues with an end cap or a label only (N-terminal biotin on a linker: ahx)

Binder | pKd
B7 | below the threshold
B8 | below the threshold

Same assay, conditions: plain residues with an end cap or a label only (N-terminal biotin on a linker: ttds)

Binder | pKd
B1 | below the threshold
B2 | below the threshold
B3 | 3.5
B4 | below the threshold
B5 | below the threshold
B9 | below the threshold

Biological target: DLG2_1, Q15700
Assay: holdup assay
Parameters: key: below the threshold = too weak to quantify, mostly under pKd 3.1 to 4
Conditions: plain residues with an end cap or a label only (N-terminal biotin on a linker: ttds)

Binder | pKd
B1 | below the threshold
B2 | below the threshold
B3 | 3.83
B4 | below the threshold
B5 | below the threshold

Biological target: TJP1_1, Q07157
Sequence (Q07157 18-120): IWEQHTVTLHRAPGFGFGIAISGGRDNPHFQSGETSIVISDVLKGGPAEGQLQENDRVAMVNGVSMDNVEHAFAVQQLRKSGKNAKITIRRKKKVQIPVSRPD
Assay: holdup assay
Parameters: key: below the threshold = too weak to quantify, mostly under pKd 3.1 to 4
Conditions: plain residues with an end cap or a label only (N-terminal biotin on a linker: ttds)

Binder | pKd
B1 | below the threshold
B2 | below the threshold
B3 | below the threshold
B4 | 3.58
B5 | below the threshold

Biological target: T8, MPDZ_6, O75970
T8 sequence (O75970 1003-1099, limits assumed, looked up): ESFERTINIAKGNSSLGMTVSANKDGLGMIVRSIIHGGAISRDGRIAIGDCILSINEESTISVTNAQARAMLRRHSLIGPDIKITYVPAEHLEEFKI
Assay: holdup assay
Parameters: key: below the threshold = too weak to quantify, mostly under pKd 3.1 to 4
Conditions: plain residues with an end cap or a label only (N-terminal biotin on a linker: ttds)

Binder | pKd
B1 | below the threshold
B2 | below the threshold
B3 | below the threshold
B4 | below the threshold
B5 | below the threshold

Biological target: PDLIM4, P50479
Sequence (P50479 1-83): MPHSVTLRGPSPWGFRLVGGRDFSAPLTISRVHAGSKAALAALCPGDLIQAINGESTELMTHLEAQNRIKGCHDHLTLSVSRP
Assay: holdup assay
Parameters: key: below the threshold = too weak to quantify, mostly under pKd 3.1 to 4
Conditions: plain residues with an end cap or a label only (N-terminal biotin on a linker: ttds)

Binder | pKd
B1 | 4.26
B2 | below the threshold
B3 | below the threshold
B4 | below the threshold
B5 | below the threshold

Biological target: CARD14, Q9BXL6
Sequence (Q9BXL6 558-663): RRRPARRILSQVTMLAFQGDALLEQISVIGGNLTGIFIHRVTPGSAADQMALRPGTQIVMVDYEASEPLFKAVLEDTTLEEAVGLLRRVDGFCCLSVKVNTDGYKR
Assay: holdup assay
Parameters: key: below the threshold = too weak to quantify, mostly under pKd 3.1 to 4
Conditions: plain residues with an end cap or a label only (N-terminal biotin on a linker: ttds)

Binder | pKd
B1 | below the threshold
B2 | below the threshold
B3 | below the threshold
B4 | below the threshold
B5 | below the threshold

Biological target: T9, GIPC1, O14908
T9 sequence (O14908 128-223, limits assumed, looked up): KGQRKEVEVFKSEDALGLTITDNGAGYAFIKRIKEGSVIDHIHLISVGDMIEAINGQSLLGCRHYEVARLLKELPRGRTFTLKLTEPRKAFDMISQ
Assay: holdup assay
Parameters: key: below the threshold = too weak to quantify, mostly under pKd 3.1 to 4
Conditions: plain residues with an end cap or a label only (N-terminal biotin on a linker: ttds)

Binder | pKd
B1 | below the threshold
B2 | below the threshold
B3 | below the threshold
B4 | below the threshold
B5 | below the threshold

Biological target: T10, MPDZ_7, O75970
T10 sequence (O75970 1146-1253, limits assumed, looked up): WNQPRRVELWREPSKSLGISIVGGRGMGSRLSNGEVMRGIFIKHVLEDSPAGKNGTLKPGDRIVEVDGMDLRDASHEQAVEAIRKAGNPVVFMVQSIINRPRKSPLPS
Assay: holdup assay
Parameters: key: below the threshold = too weak to quantify, mostly under pKd 3.1 to 4
Conditions: plain residues with an end cap or a label only (N-terminal biotin on a linker: ttds)

Binder | pKd
B1 | below the threshold
B2 | below the threshold
B3 | below the threshold
B4 | 3.71
B5 | below the threshold

Biological target: GRIP2_2, Q9C0E4
Sequence (Q9C0E4 137-245): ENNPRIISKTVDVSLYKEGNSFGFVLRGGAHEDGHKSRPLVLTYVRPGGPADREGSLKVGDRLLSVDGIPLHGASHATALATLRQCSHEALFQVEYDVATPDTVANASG
Assay: holdup assay
Parameters: key: below the threshold = too weak to quantify, mostly under pKd 3.1 to 4
Conditions: plain residues with an end cap or a label only (N-terminal biotin on a linker: ttds)

Binder | pKd
B1 | below the threshold
B2 | below the threshold
B3 | below the threshold

Biological target: T11, NHERF1_2, O14745
T11 sequence (O14745 149-244, limits assumed, looked up): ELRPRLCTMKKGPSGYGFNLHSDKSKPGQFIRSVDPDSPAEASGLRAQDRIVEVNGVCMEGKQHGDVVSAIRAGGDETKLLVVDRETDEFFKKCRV
Assay: holdup assay
Parameters: key: below the threshold = too weak to quantify, mostly under pKd 3.1 to 4
Conditions: plain residues with an end cap or a label only (N-terminal biotin on a linker: ttds)

Binder | pKd
B1 | below the threshold
B2 | below the threshold
B3 | below the threshold
B4 | below the threshold
B5 | 3.96

Biological target: DLG5_2, Q8TDM6
Sequence (Q8TDM6 714-800): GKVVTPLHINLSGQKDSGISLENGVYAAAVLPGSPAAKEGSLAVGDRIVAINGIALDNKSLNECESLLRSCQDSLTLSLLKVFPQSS
Assay: holdup assay
Parameters: key: below the threshold = too weak to quantify, mostly under pKd 3.1 to 4
Conditions: plain residues with an end cap or a label only (N-terminal biotin on a linker: ttds)

Binder | pKd
B1 | below the threshold
B2 | below the threshold
B3 | below the threshold
B4 | below the threshold
B5 | below the threshold

Biological target: MAGI1_6, Q96QZ7
Sequence (Q96QZ7 1146-1238): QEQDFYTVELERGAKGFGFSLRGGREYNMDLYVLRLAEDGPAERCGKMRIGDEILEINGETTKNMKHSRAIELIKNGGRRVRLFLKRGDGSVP
Assay: holdup assay
Parameters: key: below the threshold = too weak to quantify, mostly under pKd 3.1 to 4
Conditions: plain residues with an end cap or a label only (N-terminal biotin on a linker: ttds)

Binder | pKd
B1 | 4.55
B2 | below the threshold
B3 | below the threshold
B4 | below the threshold
B5 | below the threshold

Biological target: PREX1_1, Q8TCU6
Sequence (Q8TCU6 608-718): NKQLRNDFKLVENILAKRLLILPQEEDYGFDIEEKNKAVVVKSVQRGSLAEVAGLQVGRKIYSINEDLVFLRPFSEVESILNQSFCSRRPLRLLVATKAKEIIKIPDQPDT
Assay: holdup assay
Parameters: key: below the threshold = too weak to quantify, mostly under pKd 3.1 to 4
Conditions: plain residues with an end cap or a label only (N-terminal biotin on a linker: ttds)

Binder | pKd
B1 | below the threshold
B2 | below the threshold
B4 | below the threshold
B5 | 4.22

Biological target: SCRIB_4, Q14160
Sequence (Q14160 1095-1204): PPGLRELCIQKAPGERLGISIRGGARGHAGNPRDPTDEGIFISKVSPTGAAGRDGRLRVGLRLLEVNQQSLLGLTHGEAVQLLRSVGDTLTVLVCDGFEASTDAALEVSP
Assay: holdup assay
Parameters: key: below the threshold = too weak to quantify, mostly under pKd 3.1 to 4
Conditions: plain residues with an end cap or a label only (N-terminal biotin on a linker: ttds)

Binder | pKd
B1 | below the threshold
B2 | below the threshold
B3 | below the threshold
B4 | below the threshold
B5 | below the threshold

Biological target: MAGI3_6, Q5TCQ9
Sequence (Q5TCQ9 1014-1103): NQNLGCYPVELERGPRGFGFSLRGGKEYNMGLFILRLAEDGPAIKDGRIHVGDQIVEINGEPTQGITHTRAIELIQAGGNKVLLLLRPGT
Assay: holdup assay
Parameters: key: below the threshold = too weak to quantify, mostly under pKd 3.1 to 4
Conditions: plain residues with an end cap or a label only (N-terminal biotin on a linker: ttds)

Binder | pKd
B1 | 4.34
B2 | below the threshold
B3 | below the threshold
B4 | below the threshold
B5 | below the threshold

Biological target: T12, PTPN13_4, Q12923
T12 sequence (Q12923 1783-1878, limits assumed, looked up): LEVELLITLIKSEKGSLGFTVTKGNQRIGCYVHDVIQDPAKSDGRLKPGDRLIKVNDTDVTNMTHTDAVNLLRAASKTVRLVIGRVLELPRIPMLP
Assay: holdup assay
Parameters: key: below the threshold = too weak to quantify, mostly under pKd 3.1 to 4
Conditions: plain residues with an end cap or a label only (N-terminal biotin on a linker: ttds)

Binder | pKd
B1 | below the threshold
B2 | below the threshold
B3 | below the threshold
